In the supplement of paper PMC7877785:
± gives the uncertainty stated by the source.

Test: self-splicing fitness, log relative to wild type (ln ratio); higher = more splicing; Tetrahymena group I intron in knt gene, E. coli kanamycin selection, DiMSum; sequences stand for … in CUCUCU…GGAGGGAAAAGUUAUCAGGCAUGCACCUGGUAGCUAGUCUUUAAACCAAUAGAUUGCAUCGGUUUAAAAGGCAAGACCGUCAAAUUGCGGGAAAGGGGUCAACAGCCGUUCAGUACCAAGUCUCAGGGGAAACUUUGAGAUGGCCUUGCAAAGGGUAUGGUAAUAAGCUGACGGACAUGGUCCUAACCACGCAGCCAAGUCCUAAGUCAACAGAUCUUCUGUUGAUAUGGAUGCAGUUCACAGACUAAAUGUCGGUCGGGGAAGAUGUAUUCUUCUCAUAAGAUAUAGUCGGACCUCUCCUUAAUGGGAGCUAGCGGAUGAAGUGAUGCAACACUGGAGCCGCUGGGAACUAAUUUGUAUGCGAAAGUAUAUUGAUUAGUUUUGGAGUACUCGUGGUCG
Outline: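 A randomised library covering all eight P1ex-region intron nucleotides was built with the intron in the knt kanamycin-resistance gene on pET-22b(+) and held in E. coli BL21(DE3). Cells were grown overnight at 37°C or 30°C on LB agar, with or without 25 μg/mL kanamycin, plus 100 μg/mL carbenicillin, 50 μM IPTG and 0.2% rhamnose, and pooled colonies were amplicon-sequenced on an Illumina HiSeq 2500. DiMSum fitness is the error-weighted combination of wild-type-normalised replicate fold changes, kanamycin versus none.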

Sequence | self-splicing fitness (ln) (30 °C) | self-splicing fitness (ln) (37 °C)
CCAAAGCAAUAUUACGAUAG | -0.734 ± 0.086 | 0.171 ± 0.11
CAGUAGCAAUAUUACGUUAA | -2.74 ± 0.19 | -3.5 ± 0.23
UUAUAGCAAUAUUACGAUGC | -2.99 ± 0.34 | -1.93 ± 0.32
UAUGAGCAAUAUUACGCCAU | -2.15 ± 0.2 | -2.59 ± 0.3
UGGAAGCAAUAUUACGGAAU | -2.76 ± 0.12 | -1.01 ± 0.096
UCCAAGCAAUAUUACGCUCG | -4.74 ± 0.45 | -2.28 ± 0.49
GGCCAGCAAUAUUACGAACC | 0.576 ± 0.31 | -0.0497 ± 0.4
GGUCAGCAAUAUUACGUUGC | -1.98 ± 0.098 | -0.999 ± 0.1
UGUUAGCAAUAUUACGGAUG | -1.89 ± 0.12 | -0.39 ± 0.11
ACCGAGCAAUAUUACGCAAC | -2.01 ± 0.2 | -0.42 ± 0.2
CCCGAGCAAUAUUACGGCGU | -2.83 ± 0.13 | -1.71 ± 0.13
AUAUAGCAAUAUUACGUUAA | -2.76 ± 0.23 | -3.36 ± 0.37
CACGAGCAAUAUUACGAGCU | -4.14 ± 0.35 | -3.33 ± 0.39
GAGAAGCAAUAUUACGCGUC | -3.46 ± 0.34 | -2.31 ± 0.33
GACAAGCAAUAUUACGUAUC | -3.31 ± 0.15 | -0.876 ± 0.14
UGAAAGCAAUAUUACGAUGC |  | -2.83 ± 0.41
AGCCAGCAAUAUUACGCUCG | -1.78 ± 0.18 | -1.58 ± 0.18
CGCGAGCAAUAUUACGCAGU | -2.99 ± 0.16 | -2.77 ± 0.17
GCACAGCAAUAUUACGACAA | -1.18 ± 0.087 | -1.22 ± 0.087
AUACAGCAAUAUUACGACGG | -3.2 ± 0.15 | -0.835 ± 0.13
CACGAGCAAUAUUACGCGGA | -3.61 ± 0.37 | -3.37 ± 0.4
ACCUAGCAAUAUUACGCCGG | -0.962 ± 0.13 | -0.598 ± 0.17
GAGUAGCAAUAUUACGACUG | 0.34 ± 0.24 | -0.96 ± 0.21
GGUCAGCAAUAUUACGCCUC | -0.643 ± 0.12 | 0.0345 ± 0.14
CUUAAGCAAUAUUACGCGUG | -2.99 ± 0.15 | -1.26 ± 0.12

Sequence | self-splicing fitness (ln) (30 °C) | self-splicing fitness (ln) (37 °C)
GACAAGCAAUAUUACGAGCG | -1 ± 0.074 | -0.88 ± 0.088
UUUCAGCAAUAUUACGAAUC | -1.94 ± 0.18 | -1.31 ± 0.24
UACGAGCAAUAUUACGCCGG | -2.84 ± 0.29 | 0.206 ± 0.22
AAUGAGCAAUAUUACGGCGA | -2.77 ± 0.34 | -0.446 ± 0.19
ACAGAGCAAUAUUACGUCUC | -3.77 ± 0.19 | -2.4 ± 0.17
ACUUAGCAAUAUUACGCAGU | -3.83 ± 0.35 | -2.17 ± 0.21
CAGGAGCAAUAUUACGGAGG | -2.02 ± 0.095 | -1.21 ± 0.12
AGAAAGCAAUAUUACGAGGC | -3.15 ± 0.42 | -2.66 ± 0.41
CAUAAGCAAUAUUACGGAUC |  | -1.38 ± 0.23
CUCCAGCAAUAUUACGCAAA | -3.21 ± 0.21 | -2.68 ± 0.26
CAGGAGCAAUAUUACGAUUG | -3.77 ± 0.28 | -2.46 ± 0.23
AAUUAGCAAUAUUACGAUAU | -0.45 ± 0.093 | 0.012 ± 0.12
GACUAGCAAUAUUACGUAUG | -1.82 ± 0.068 | -1.33 ± 0.091
AGAAAGCAAUAUUACGUCAU | -1.55 ± 0.079 | -0.954 ± 0.096
GCACAGCAAUAUUACGGAUU | -0.914 ± 0.055 | -0.231 ± 0.073
GCUAAGCAAUAUUACGCCGA | -2.09 ± 0.33 | -1.28 ± 0.2
GUCCAGCAAUAUUACGAUAG | -3.53 ± 0.14 | -2.89 ± 0.17
CCAUAGCAAUAUUACGUCUA | -4.41 ± 0.34 | -2.47 ± 0.18
CAGUAGCAAUAUUACGACGC | -3.07 ± 0.38 | -0.25 ± 0.25
AGCCAGCAAUAUUACGCGCU | -3.07 ± 0.24 | -2.15 ± 0.25
CCAAAGCAAUAUUACGAGGG | -3.76 ± 0.22 | -1.56 ± 0.16
GAAGAGCAAUAUUACGGAAA | -2.81 ± 0.14 | -2.93 ± 0.22
UAAUAGCAAUAUUACGUCCG | -0.913 ± 0.23 | -0.835 ± 0.2
AUUGAGCAAUAUUACGUUUC |  | -2.57 ± 0.48
AUAUAGCAAUAUUACGUACC | -1.41 ± 0.2 | -0.927 ± 0.28

Sequence | self-splicing fitness (ln) (30 °C) | self-splicing fitness (ln) (37 °C)
CGAUAGCAAUAUUACGUGGU | -3.97 ± 0.16 | -1.94 ± 0.12
AGGAAGCAAUAUUACGAAAU | -3.06 ± 0.2 | -1.53 ± 0.18
UCCAAGCAAUAUUACGGCGA | 0.214 ± 0.078 | 0.225 ± 0.086
GCUCAGCAAUAUUACGCCCG |  | -0.341 ± 0.44
GACUAGCAAUAUUACGCCGU | -2.15 ± 0.11 | -0.995 ± 0.1
CGCUAGCAAUAUUACGUGGG | -3.6 ± 0.17 | -2.74 ± 0.21
UAUGAGCAAUAUUACGAGGU |  | -3.62 ± 0.46
GUGAAGCAAUAUUACGCUGA | -1.32 ± 0.092 | -1.09 ± 0.13
CCCGAGCAAUAUUACGCGAG | -5.08 ± 0.41 | -2.46 ± 0.18
GCACAGCAAUAUUACGGCCA | -1.84 ± 0.21 | -0.441 ± 0.19
CAAGAGCAAUAUUACGCUGA | -2.97 ± 0.19 | -2.08 ± 0.21
AUCGAGCAAUAUUACGAGUG | -3.32 ± 0.3 | -2.09 ± 0.32
CGGAAGCAAUAUUACGACCA | 0.623 ± 0.2 | -0.13 ± 0.27
AUAUAGCAAUAUUACGUUGC | -2.4 ± 0.19 | -1.25 ± 0.23
GAACAGCAAUAUUACGAGCU | -1.99 ± 0.091 | -1.18 ± 0.09
CAUGAGCAAUAUUACGCAUU | -2.88 ± 0.19 | -2.03 ± 0.24
CAACAGCAAUAUUACGGCUU | -1.88 ± 0.082 | -0.875 ± 0.087
ACAGAGCAAUAUUACGAGUU | -3.3 ± 0.2 | -1.8 ± 0.14
AAGCAGCAAUAUUACGAUUG | -2.54 ± 0.13 | -1.9 ± 0.14
ACCGAGCAAUAUUACGCGUG | -1.41 ± 0.079 | -0.71 ± 0.08
CUCAAGCAAUAUUACGCUAA | -3.13 ± 0.2 | -2.96 ± 0.22
CACAAGCAAUAUUACGCUUC | -3.67 ± 0.18 | -2.59 ± 0.27
AUAAAGCAAUAUUACGGCCA | 0.232 ± 0.11 | 0.15 ± 0.13
AGUCAGCAAUAUUACGCCUA | -0.754 ± 0.12 | 0.18 ± 0.15
GCGCAGCAAUAUUACGGGUU | -1.71 ± 0.042 | -0.67 ± 0.053

Sequence | self-splicing fitness (ln) (30 °C) | self-splicing fitness (ln) (37 °C)
CAUAAGCAAUAUUACGAGAA |  | -2.27 ± 0.3
AAGCAGCAAUAUUACGGAGC | -3.81 ± 0.37 | -3.05 ± 0.23
AACAAGCAAUAUUACGGACA | -1.6 ± 0.094 | 0.312 ± 0.095
GUUGAGCAAUAUUACGGGCA | -3.29 ± 0.23 | -0.813 ± 0.16
AUCUAGCAAUAUUACGUCUA | -2.83 ± 0.25 | -1.59 ± 0.21
CGCGAGCAAUAUUACGGUAA | -2.58 ± 0.23 | -1.58 ± 0.31
GGAGAGCAAUAUUACGAGGA | -3.52 ± 0.31 | -2.44 ± 0.19
GGCGAGCAAUAUUACGGACC |  | -0.87 ± 0.4
AAUAAGCAAUAUUACGGGAU | -2.73 ± 0.15 | -1.33 ± 0.14
UAGGAGCAAUAUUACGUGAU | -3.75 ± 0.35 | -1.44 ± 0.3
GCACAGCAAUAUUACGGCAA | -1.31 ± 0.13 | -0.887 ± 0.14
CGGGAGCAAUAUUACGCGGU |  | -1.72 ± 0.29
GCCGAGCAAUAUUACGCCUU | -3.44 ± 0.27 | -2 ± 0.36
AAUAAGCAAUAUUACGACGC | -0.19 ± 0.093 | 0.0933 ± 0.12
CCUAAGCAAUAUUACGGAAG | -2.12 ± 0.11 | -0.751 ± 0.1
CGACAGCAAUAUUACGGGGU | -4.03 ± 0.17 | -3.01 ± 0.17
AUUCAGCAAUAUUACGAAUG | -1.54 ± 0.11 | -0.673 ± 0.13
AUGCAGCAAUAUUACGCGAA | -1.76 ± 0.13 | -1.03 ± 0.11
CCACAGCAAUAUUACGCGCG | -1.02 ± 0.042 | -0.161 ± 0.056
UGAGAGCAAUAUUACGGCGG | -3.73 ± 0.35 | -1.9 ± 0.3
CCUUAGCAAUAUUACGCGAU |  | -3.16 ± 0.22
UUCAAGCAAUAUUACGUGGC | -3.8 ± 0.19 | -1.83 ± 0.13
UUAUAGCAAUAUUACGGCGC | -0.766 ± 0.18 | -0.308 ± 0.17
